Source: patent EP4663654A1 (Hangzhou Sciwind Biosciences Co., Ltd., dated 2025)
Each block holds one binder with its values, some of them ahead of it. Starred links: 1 amine or outer side, 2 acyl side, 3 side chain; linkers in the order of their positions; H or OH if unused. Non-standard residues stand in square brackets, D forms with d. *: point of attachment. C20 diacid = O=C(O)CCCCCCCCCCCCCCCCCCC(=O)*; γGlu = O=C(O)[C@H](CCC(=O)[*:2])N[*:1]; βAsp = O=C(O)[C@H](CC(=O)[*:2])N[*:1]; Hyp = O=C(O)[C@@H]1C[C@@H](O)CN1

Biological target: T1, human amylin receptor (AMY3) on CHO-K1/Ga15/AMY3 amylin receptor/CRE-luc cells (human, UniProt P30988 25-474; O60896 24-148)
T1 sequence (looked up) 1: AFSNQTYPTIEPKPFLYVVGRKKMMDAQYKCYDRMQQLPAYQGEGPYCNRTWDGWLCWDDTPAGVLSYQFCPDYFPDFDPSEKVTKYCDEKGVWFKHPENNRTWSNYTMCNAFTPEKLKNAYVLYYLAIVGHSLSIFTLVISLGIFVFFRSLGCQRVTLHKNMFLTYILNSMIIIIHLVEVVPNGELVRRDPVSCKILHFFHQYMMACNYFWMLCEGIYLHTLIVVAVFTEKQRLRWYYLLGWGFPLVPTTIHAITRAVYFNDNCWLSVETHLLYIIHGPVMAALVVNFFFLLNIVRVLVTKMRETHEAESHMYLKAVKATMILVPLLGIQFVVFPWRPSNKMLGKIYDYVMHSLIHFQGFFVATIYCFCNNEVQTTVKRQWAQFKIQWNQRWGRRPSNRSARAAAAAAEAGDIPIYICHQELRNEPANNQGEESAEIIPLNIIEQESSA
T1 sequence (looked up) 2: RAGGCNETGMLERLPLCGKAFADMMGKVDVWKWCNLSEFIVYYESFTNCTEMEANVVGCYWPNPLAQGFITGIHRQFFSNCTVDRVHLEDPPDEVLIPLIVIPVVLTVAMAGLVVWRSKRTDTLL
Assay: cell-based or functional assay

B1: polypeptide derivative M13 (peptide)
peptide: {C20 diacid}-DASQLSTAATQRLADFLRHFTDRDRDILPPTNVGSNTP-NH2
SMILES: CC[C@H](C)[C@H](NC(=O)[C@H](CC(=O)O)NC(=O)[C@H](CCCNC(=N)N)NC(=O)[C@H](CC(=O)O)NC(=O)[C@H](CCCNC(=N)N)NC(=O)[C@H](CC(=O)O)NC(=O)[C@@H](NC(=O)[C@H](Cc1ccccc1)NC(=O)[C@H](Cc1c[nH]cn1)NC(=O)[C@H](CCCNC(=N)N)NC(=O)[C@H](CC(C)C)NC(=O)[C@H](Cc1ccccc1)NC(=O)[C@H](CC(=O)O)NC(=O)[C@H](C)NC(=O)[C@H](CC(C)C)NC(=O)[C@H](CCCNC(=N)N)NC(=O)[C@H](CCC(N)=O)NC(=O)[C@@H](NC(=O)[C@H](C)NC(=O)[C@H](C)NC(=O)[C@@H](NC(=O)[C@H](CO)NC(=O)[C@H](CC(C)C)NC(=O)[C@H](CCC(N)=O)NC(=O)[C@H](CO)NC(=O)[C@H](C)NC(=O)[C@H](CC(=O)O)NC(=O)CCCCCCCCCCCCCCCCCCC(=O)O)[C@@H](C)O)[C@@H](C)O)[C@@H](C)O)C(=O)N[C@@H](CC(C)C)C(=O)N1CCC[C@H]1C(=O)N1CCC[C@H]1C(=O)N[C@H](C(=O)N[C@@H](CC(N)=O)C(=O)N[C@H](C(=O)NCC(=O)N[C@@H](CO)C(=O)N[C@@H](CC(N)=O)C(=O)N[C@H](C(=O)N1CCC[C@H]1C(N)=O)[C@@H](C)O)C(C)C)[C@@H](C)O
EC50/nM, CRE-luciferase reporter in amylin receptor/CRE-luc CHO cells: 0.034 nM
Relative activity (the EC50 ratio of Cagrilintide to the compound): 78%

B2: polypeptide derivative M11 (peptide)
peptide: {C20 diacid}-EASQLSTAATQRLADFLRHFTDRDRDILPPTNVGSNTP-NH2
SMILES: CC[C@H](C)[C@H](NC(=O)[C@H](CC(=O)O)NC(=O)[C@H](CCCNC(=N)N)NC(=O)[C@H](CC(=O)O)NC(=O)[C@H](CCCNC(=N)N)NC(=O)[C@H](CC(=O)O)NC(=O)[C@@H](NC(=O)[C@H](Cc1ccccc1)NC(=O)[C@H](Cc1c[nH]cn1)NC(=O)[C@H](CCCNC(=N)N)NC(=O)[C@H](CC(C)C)NC(=O)[C@H](Cc1ccccc1)NC(=O)[C@H](CC(=O)O)NC(=O)[C@H](C)NC(=O)[C@H](CC(C)C)NC(=O)[C@H](CCCNC(=N)N)NC(=O)[C@H](CCC(N)=O)NC(=O)[C@@H](NC(=O)[C@H](C)NC(=O)[C@H](C)NC(=O)[C@@H](NC(=O)[C@H](CO)NC(=O)[C@H](CC(C)C)NC(=O)[C@H](CCC(N)=O)NC(=O)[C@H](CO)NC(=O)[C@H](C)NC(=O)[C@H](CCC(=O)O)NC(=O)CCCCCCCCCCCCCCCCCCC(=O)O)[C@@H](C)O)[C@@H](C)O)[C@@H](C)O)C(=O)N[C@@H](CC(C)C)C(=O)N1CCC[C@H]1C(=O)N1CCC[C@H]1C(=O)N[C@H](C(=O)N[C@@H](CC(N)=O)C(=O)N[C@H](C(=O)NCC(=O)N[C@@H](CO)C(=O)N[C@@H](CC(N)=O)C(=O)N[C@H](C(=O)N1CCC[C@H]1C(N)=O)[C@@H](C)O)C(C)C)[C@@H](C)O
EC50/nM, CRE-luciferase reporter in amylin receptor/CRE-luc CHO cells: 0.004 nM
Relative activity (the EC50 ratio of Cagrilintide to the compound): 110%

Now from value to binder:

EC50/nM, CRE-luciferase reporter in amylin receptor/CRE-luc CHO cells: 0.049 nM
Relative activity (the EC50 ratio of Cagrilintide to the compound): 53%
B3: polypeptide derivative M8 (peptide)
peptide: {C20 diacid-γGlu}-ASQLSTAVTQRLADFLRHFTDRDRDILPPTNVGSNTP-NH2
SMILES: CC[C@H](C)[C@H](NC(=O)[C@H](CC(=O)O)NC(=O)[C@H](CCCNC(=N)N)NC(=O)[C@H](CC(=O)O)NC(=O)[C@H](CCCNC(=N)N)NC(=O)[C@H](CC(=O)O)NC(=O)[C@@H](NC(=O)[C@H](Cc1ccccc1)NC(=O)[C@H](Cc1c[nH]cn1)NC(=O)[C@H](CCCNC(=N)N)NC(=O)[C@H](CC(C)C)NC(=O)[C@H](Cc1ccccc1)NC(=O)[C@H](CC(=O)O)NC(=O)[C@H](C)NC(=O)[C@H](CC(C)C)NC(=O)[C@H](CCCNC(=N)N)NC(=O)[C@H](CCC(N)=O)NC(=O)[C@@H](NC(=O)[C@@H](NC(=O)[C@H](C)NC(=O)[C@@H](NC(=O)[C@H](CO)NC(=O)[C@H](CC(C)C)NC(=O)[C@H](CCC(N)=O)NC(=O)[C@H](CO)NC(=O)[C@H](C)NC(=O)CC[C@H](NC(=O)CCCCCCCCCCCCCCCCCCC(=O)O)C(=O)O)[C@@H](C)O)C(C)C)[C@@H](C)O)[C@@H](C)O)C(=O)N[C@@H](CC(C)C)C(=O)N1CCC[C@H]1C(=O)N1CCC[C@H]1C(=O)N[C@H](C(=O)N[C@@H](CC(N)=O)C(=O)N[C@H](C(=O)NCC(=O)N[C@@H](CO)C(=O)N[C@@H](CC(N)=O)C(=O)N[C@H](C(=O)N1CCC[C@H]1C(N)=O)[C@@H](C)O)C(C)C)[C@@H](C)O

EC50/nM, CRE-luciferase reporter in amylin receptor/CRE-luc CHO cells: 0.026 nM
Relative activity (the EC50 ratio of Cagrilintide to the compound): 100%
B4: polypeptide derivative M9 (peptide)
peptide: {C20 diacid-γGlu}-ASQLSTAVLQRLADFLRHSSNNLKPILPPTNVGSNT[Hyp]-NH2
SMILES: CC[C@H](C)[C@H](NC(=O)[C@@H]1CCCN1C(=O)[C@H](CCCCN)NC(=O)[C@H](CC(C)C)NC(=O)[C@H](CC(N)=O)NC(=O)[C@H](CC(N)=O)NC(=O)[C@H](CO)NC(=O)[C@H](CO)NC(=O)[C@H](Cc1c[nH]cn1)NC(=O)[C@H](CCCNC(=N)N)NC(=O)[C@H](CC(C)C)NC(=O)[C@H](Cc1ccccc1)NC(=O)[C@H](CC(=O)O)NC(=O)[C@H](C)NC(=O)[C@H](CC(C)C)NC(=O)[C@H](CCCNC(=N)N)NC(=O)[C@H](CCC(N)=O)NC(=O)[C@H](CC(C)C)NC(=O)[C@@H](NC(=O)[C@H](C)NC(=O)[C@@H](NC(=O)[C@H](CO)NC(=O)[C@H](CC(C)C)NC(=O)[C@H](CCC(N)=O)NC(=O)[C@H](CO)NC(=O)[C@H](C)NC(=O)CC[C@H](NC(=O)CCCCCCCCCCCCCCCCCCC(=O)O)C(=O)O)[C@@H](C)O)C(C)C)C(=O)N[C@@H](CC(C)C)C(=O)N1CCC[C@H]1C(=O)N1CCC[C@H]1C(=O)N[C@H](C(=O)N[C@@H](CC(N)=O)C(=O)N[C@H](C(=O)NCC(=O)N[C@@H](CO)C(=O)N[C@@H](CC(N)=O)C(=O)N[C@H](C(=O)N1C[C@H](O)C[C@H]1C(N)=O)[C@@H](C)O)C(C)C)[C@@H](C)O

EC50/nM, CRE-luciferase reporter in amylin receptor/CRE-luc CHO cells: 0.034 nM
Relative activity (the EC50 ratio of Cagrilintide to the compound): 78%
B5: polypeptide derivative M12 (peptide)
peptide: {C20 diacid-βAsp}-ASQLSTAATQRLADFLRHFTDRDRDILPPTNVGSNTP-NH2
SMILES: CC[C@H](C)[C@H](NC(=O)[C@H](CC(=O)O)NC(=O)[C@H](CCCNC(=N)N)NC(=O)[C@H](CC(=O)O)NC(=O)[C@H](CCCNC(=N)N)NC(=O)[C@H](CC(=O)O)NC(=O)[C@@H](NC(=O)[C@H](Cc1ccccc1)NC(=O)[C@H](Cc1c[nH]cn1)NC(=O)[C@H](CCCNC(=N)N)NC(=O)[C@H](CC(C)C)NC(=O)[C@H](Cc1ccccc1)NC(=O)[C@H](CC(=O)O)NC(=O)[C@H](C)NC(=O)[C@H](CC(C)C)NC(=O)[C@H](CCCNC(=N)N)NC(=O)[C@H](CCC(N)=O)NC(=O)[C@@H](NC(=O)[C@H](C)NC(=O)[C@H](C)NC(=O)[C@@H](NC(=O)[C@H](CO)NC(=O)[C@H](CC(C)C)NC(=O)[C@H](CCC(N)=O)NC(=O)[C@H](CO)NC(=O)[C@H](C)NC(=O)C[C@H](NC(=O)CCCCCCCCCCCCCCCCCCC(=O)O)C(=O)O)[C@@H](C)O)[C@@H](C)O)[C@@H](C)O)C(=O)N[C@@H](CC(C)C)C(=O)N1CCC[C@H]1C(=O)N1CCC[C@H]1C(=O)N[C@H](C(=O)N[C@@H](CC(N)=O)C(=O)N[C@H](C(=O)NCC(=O)N[C@@H](CO)C(=O)N[C@@H](CC(N)=O)C(=O)N[C@H](C(=O)N1CCC[C@H]1C(N)=O)[C@@H](C)O)C(C)C)[C@@H](C)O
